Reference: doi:10.1101/2023.03.21.533612

Molecular target: NStr-M35_S, M35 short version (aa 2-452) with N-terminal Twin-Strep tag and TEV cleavage sequence (murine cytomegalovirus (MCMV))
Assay: SEC-MALS

Substance: NStr-M35_S, M35 short version (aa 2-452) with N-terminal Twin-Strep tag and TEV cleavage sequence (domain or fragment)
- stoichiometry N: 2
